We go through one molecule from publication PMC6382874, “Succinylation-dependent mitochondrial translocation of PKM2 promotes cell survival in response to nutritional stress” (Cell Death & Disease, 2019).

The experiment addresses T1, His-PKM2 (human, UniProt P14618 1-531).
T1 construct: Pyruvate kinase M2 (PKM2), human cDNA cloned into pET28a(+); also called His-tagged-PKM2; source: E. coli BL21, purified (Ni–agarose beads); not shown: His-tag, N-terminal, kept
The experiment in a line: pull-down; in vitro binding of His-PKM2 (2.5 μg) and GST-VDAC3, Ni–NTA agarose, western blot with anti-GST or anti-His antibody. The settings on record: both partners purified.

T1 sequence (P14618 whole entry): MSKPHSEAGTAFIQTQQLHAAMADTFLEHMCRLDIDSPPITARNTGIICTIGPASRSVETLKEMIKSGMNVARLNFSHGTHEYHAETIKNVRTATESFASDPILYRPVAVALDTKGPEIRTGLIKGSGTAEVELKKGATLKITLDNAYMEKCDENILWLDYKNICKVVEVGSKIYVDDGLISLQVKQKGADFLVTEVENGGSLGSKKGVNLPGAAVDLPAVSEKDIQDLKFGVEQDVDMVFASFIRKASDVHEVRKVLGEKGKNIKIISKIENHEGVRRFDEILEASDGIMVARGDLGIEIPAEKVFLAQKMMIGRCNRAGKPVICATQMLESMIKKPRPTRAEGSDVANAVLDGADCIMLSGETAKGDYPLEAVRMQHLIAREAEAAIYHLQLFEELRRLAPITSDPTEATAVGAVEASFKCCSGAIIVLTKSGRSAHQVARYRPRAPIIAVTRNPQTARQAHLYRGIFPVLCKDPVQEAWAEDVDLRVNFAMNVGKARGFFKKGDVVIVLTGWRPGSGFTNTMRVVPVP

B1: GST-VDAC3 (natural protein, human, UniProt Q9Y277 1-283, looked up)
chain: MCNTPTYCDLGKAAKDVFNKGYGFGMVKIDLKTKSCSGVEFSTSGHAYTDTGKASGNLETKYKVCNYGLTFTQKWNTDNTLGTEISWENKLAEGLKLTLDTIFVPNTGKKSGKLKASYKRDCFSVGSNVDIDFSGPTIYGWAVLAFEGWLAGYQMSFDTAKSKLSQNNFALGYKAADFQLHTHVNDGTEFGGSIYQKVNEKIETSINLAWTAGSNNTRFGIAAKYMLDCRTSLSAKVNNASLIGLGYTQTLRPGVKLTLSALIDGKNFSAGGHKVGLGFELEA
notes: VDAC3, human cDNA cloned into pGEX-4T-1; also called GST-tagged-VDAC3; source: E. coli BL21, purified (GST agarose beads); the pull-down method also calls it in vitro translated; not shown: GST, N-terminal, kept
For B1, the binding result is given as “binds”.
